From article PMC6825360, “Chaetomella raphigera β-glucosidase D2-BGL has intriguing structural features and a high substrate affinity that renders it an efficient cellulase supplement for lignocellulosic biomass hydrolysis” (Biotechnology for Biofuels, 2019)

How the values were obtained:
[1] = biological target: D2-BGL (Chaetomella raphigera, UniProt A0A068FT77, INS255S/N255I, form not given); assay: cellobiase assay, glucose release, crude secreted enzyme; format: biochemical; conditions: crude enzyme from P. pastoris culture; mutant N255* (N255 replaced by two residues I-S); wild type measured beside it 1.45 mM
[2] = biological target: T1, D2-BGL (Chaetomella raphigera, UniProt A0A068FT77); assay: inhibition of pNPG hydrolysis at […] glucose, absorbance of pNP at […] nm, non-linear fit; format: biochemical; conditions: read-out: Ki glucose; substrate pNPG; pH 5 (50 mM sodium acetate), 55 °C; product inhibition
T1 construct: secreted recombinant from Pichia pastoris SMD1168 (pGAPZalphaC), His-tagged (strain #5 has an extra N-terminal 6-His), IMAC purified, N-hyperglycosylated, smear 95-180 kDa; TIM barrel 1-307, alpha/beta sandwich 319-521, FnIII 573-712
T1 sequence (A0A068FT77 1-722): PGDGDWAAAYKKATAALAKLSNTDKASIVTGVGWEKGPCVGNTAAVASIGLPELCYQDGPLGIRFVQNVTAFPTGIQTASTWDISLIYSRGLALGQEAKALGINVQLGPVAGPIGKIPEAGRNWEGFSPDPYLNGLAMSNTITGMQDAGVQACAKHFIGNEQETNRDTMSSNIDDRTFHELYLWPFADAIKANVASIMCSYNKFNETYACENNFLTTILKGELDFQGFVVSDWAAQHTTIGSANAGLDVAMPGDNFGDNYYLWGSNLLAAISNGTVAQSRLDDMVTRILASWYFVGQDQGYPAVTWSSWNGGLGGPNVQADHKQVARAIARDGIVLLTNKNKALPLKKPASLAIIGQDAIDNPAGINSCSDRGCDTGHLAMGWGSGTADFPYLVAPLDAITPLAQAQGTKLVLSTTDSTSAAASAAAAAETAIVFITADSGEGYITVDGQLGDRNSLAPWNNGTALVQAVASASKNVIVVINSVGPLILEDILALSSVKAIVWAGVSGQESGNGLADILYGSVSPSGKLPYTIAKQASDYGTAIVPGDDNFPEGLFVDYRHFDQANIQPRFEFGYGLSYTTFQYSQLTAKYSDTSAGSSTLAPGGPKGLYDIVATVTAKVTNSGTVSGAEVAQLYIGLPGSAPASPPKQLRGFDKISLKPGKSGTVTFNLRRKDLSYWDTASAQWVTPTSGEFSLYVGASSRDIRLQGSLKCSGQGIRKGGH

[3] = cellobiase assay after non-denaturing deglycosylation; conditions: glycan lost; control: non-deglycosylated enzyme
[4] = specific activity of purified enzyme; conditions: glycan lost; control: wild type
[5] = productivity from culture supernatant activity, P. pastoris; conditions: glycan lost; control: wild type
[6] = substrate: O=[N+]([O-])c1ccc(O[C@@H]2O[C@H](CO)[C@@H](O)[C@H](O)[C@H]2O)cc1; assay: purified protein; conditions: pH 5 (50 mM sodium acetate), 55 °C, 10 min

## OC[C@H]1O[C@@H](O[C@H]2[C@H](O)[C@@H](O)C(O)O[C@@H]2CO)[C@H](O)[C@@H](O)[C@@H]1O (stereo partly drawn) [cellobiose]
[1]
  Km: 2840 µM

## OC[C@H]1OC(O)[C@H](O)[C@@H](O)[C@@H]1O (stereo partly drawn) [glucose]
[2]
  Ki: 2420 ± 690 µM

B1: β-glucosidase D2-BGL: Endo H (protein)
parent chain: PGDGDWAAAYKKATAALAKLSNTDKASIVTGVGWEKGPCVGNTAAVASIGLPELCYQDGPLGIRFVQNVTAFPTGIQTASTWDISLIYSRGLALGQEAKALGINVQLGPVAGPIGKIPEAGRNWEGFSPDPYLNGLAMSNTITGMQDAGVQACAKHFIGNEQETNRDTMSSNIDDRTFHELYLWPFADAIKANVASIMCSYNKFNETYACENNFLTTILKGELDFQGFVVSDWAAQHTTIGSANAGLDVAMPGDNFGDNYYLWGSNLLAAISNGTVAQSRLDDMVTRILASWYFVGQDQGYPAVTWSSWNGGLGGPNVQADHKQVARAIARDGIVLLTNKNKALPLKKPASLAIIGQDAIDNPAGINSCSDRGCDTGHLAMGWGSGTADFPYLVAPLDAITPLAQAQGTKLVLSTTDSTSAAASAAAAAETAIVFITADSGEGYITVDGQLGDRNSLAPWNNGTALVQAVASASKNVIVVINSVGPLILEDILALSSVKAIVWAGVSGQESGNGLADILYGSVSPSGKLPYTIAKQASDYGTAIVPGDDNFPEGLFVDYRHFDQANIQPRFEFGYGLSYTTFQYSQLTAKYSDTSAGSSTLAPGGPKGLYDIVATVTAKVTNSGTVSGAEVAQLYIGLPGSAPASPPKQLRGFDKISLKPGKSGTVTFNLRRKDLSYWDTASAQWVTPTSGEFSLYVGASSRDIRLQGSLKCSGQGIRKGGH
[3]
  enzymatic_activity, other: specific activity: no change, 185 ± 21 vs 209 ± 14

B2: β-glucosidase D2-BGL: N68Q (protein)
parent chain: PGDGDWAAAYKKATAALAKLSNTDKASIVTGVGWEKGPCVGNTAAVASIGLPELCYQDGPLGIRFVQNVTAFPTGIQTASTWDISLIYSRGLALGQEAKALGINVQLGPVAGPIGKIPEAGRNWEGFSPDPYLNGLAMSNTITGMQDAGVQACAKHFIGNEQETNRDTMSSNIDDRTFHELYLWPFADAIKANVASIMCSYNKFNETYACENNFLTTILKGELDFQGFVVSDWAAQHTTIGSANAGLDVAMPGDNFGDNYYLWGSNLLAAISNGTVAQSRLDDMVTRILASWYFVGQDQGYPAVTWSSWNGGLGGPNVQADHKQVARAIARDGIVLLTNKNKALPLKKPASLAIIGQDAIDNPAGINSCSDRGCDTGHLAMGWGSGTADFPYLVAPLDAITPLAQAQGTKLVLSTTDSTSAAASAAAAAETAIVFITADSGEGYITVDGQLGDRNSLAPWNNGTALVQAVASASKNVIVVINSVGPLILEDILALSSVKAIVWAGVSGQESGNGLADILYGSVSPSGKLPYTIAKQASDYGTAIVPGDDNFPEGLFVDYRHFDQANIQPRFEFGYGLSYTTFQYSQLTAKYSDTSAGSSTLAPGGPKGLYDIVATVTAKVTNSGTVSGAEVAQLYIGLPGSAPASPPKQLRGFDKISLKPGKSGTVTFNLRRKDLSYWDTASAQWVTPTSGEFSLYVGASSRDIRLQGSLKCSGQGIRKGGH
[4]
  enzymatic_activity, other: specific activity: no change, 216 ± 23 vs 197 ± 3
[5]
  expression_or_secretion, other: productivity: decreases, 4.5 vs 9.6, N68Q mutant (0.98 ± 0.22 U/mL) ... relative to that of wild-type (1.89 ± 0.18 U/mL)

B3: β-glucosidase D2-BGL: T431A (protein)
parent chain: PGDGDWAAAYKKATAALAKLSNTDKASIVTGVGWEKGPCVGNTAAVASIGLPELCYQDGPLGIRFVQNVTAFPTGIQTASTWDISLIYSRGLALGQEAKALGINVQLGPVAGPIGKIPEAGRNWEGFSPDPYLNGLAMSNTITGMQDAGVQACAKHFIGNEQETNRDTMSSNIDDRTFHELYLWPFADAIKANVASIMCSYNKFNETYACENNFLTTILKGELDFQGFVVSDWAAQHTTIGSANAGLDVAMPGDNFGDNYYLWGSNLLAAISNGTVAQSRLDDMVTRILASWYFVGQDQGYPAVTWSSWNGGLGGPNVQADHKQVARAIARDGIVLLTNKNKALPLKKPASLAIIGQDAIDNPAGINSCSDRGCDTGHLAMGWGSGTADFPYLVAPLDAITPLAQAQGTKLVLSTTDSTSAAASAAAAAETAIVFITADSGEGYITVDGQLGDRNSLAPWNNGTALVQAVASASKNVIVVINSVGPLILEDILALSSVKAIVWAGVSGQESGNGLADILYGSVSPSGKLPYTIAKQASDYGTAIVPGDDNFPEGLFVDYRHFDQANIQPRFEFGYGLSYTTFQYSQLTAKYSDTSAGSSTLAPGGPKGLYDIVATVTAKVTNSGTVSGAEVAQLYIGLPGSAPASPPKQLRGFDKISLKPGKSGTVTFNLRRKDLSYWDTASAQWVTPTSGEFSLYVGASSRDIRLQGSLKCSGQGIRKGGH
[4]
  enzymatic_activity, other: specific activity: no change, 189 ± 11 vs 197 ± 3
[5]
  expression_or_secretion, other: productivity: decreases, 3.2 vs 9.6, T431A mutant (0.61 ± 0.05 U/mL)

B4: D2-BGL (Chaetomella raphigera) (protein)
chain: PGDGDWAAAYKKATAALAKLSNTDKASIVTGVGWEKGPCVGNTAAVASIGLPELCYQDGPLGIRFVQNVTAFPTGIQTASTWDISLIYSRGLALGQEAKALGINVQLGPVAGPIGKIPEAGRNWEGFSPDPYLNGLAMSNTITGMQDAGVQACAKHFIGNEQETNRDTMSSNIDDRTFHELYLWPFADAIKANVASIMCSYNKFNETYACENNFLTTILKGELDFQGFVVSDWAAQHTTIGSANAGLDVAMPGDNFGDNYYLWGSNLLAAISNGTVAQSRLDDMVTRILASWYFVGQDQGYPAVTWSSWNGGLGGPNVQADHKQVARAIARDGIVLLTNKNKALPLKKPASLAIIGQDAIDNPAGINSCSDRGCDTGHLAMGWGSGTADFPYLVAPLDAITPLAQAQGTKLVLSTTDSTSAAASAAAAAETAIVFITADSGEGYITVDGQLGDRNSLAPWNNGTALVQAVASASKNVIVVINSVGPLILEDILALSSVKAIVWAGVSGQESGNGLADILYGSVSPSGKLPYTIAKQASDYGTAIVPGDDNFPEGLFVDYRHFDQANIQPRFEFGYGLSYTTFQYSQLTAKYSDTSAGSSTLAPGGPKGLYDIVATVTAKVTNSGTVSGAEVAQLYIGLPGSAPASPPKQLRGFDKISLKPGKSGTVTFNLRRKDLSYWDTASAQWVTPTSGEFSLYVGASSRDIRLQGSLKCSGQGIRKGGH
[6]
  Km: 200 ± 100 µM
  Vmax: 419 µmol/min/mg
